Test results reported in patent US20220204580A1 (AstraZeneca / MedImmune, published 2022).
Numbered stars: 1 amine (or outer) side, 2 acyl side, 3 side chain; on linkers, the order of the positions; unused ones are H or OH. Bridge positions count the residues as written; N and C are the ends. Square brackets hold non-standard residues; d marks the D form. Side chains are listed from the residue outwards. Ends that are not written are not given here. * marks the point of attachment. C18 diacid = O=C(O)CCCCCCCCCCCCCCCCC(=O)*; γGlu = O=C(O)[C@H](CCC(=O)[*:2])N[*:1]; Aib = CC(C)(N)C(=O)O

Columns and labels:
[1] = target: T1, human amylin receptor (calcitonin receptor co-expressed with receptor activity modifying protein, RAMP3) (human, UniProt P30988 25-474; O60896 24-148); assay: cell-based or functional assay
T1 sequence (looked up) 1: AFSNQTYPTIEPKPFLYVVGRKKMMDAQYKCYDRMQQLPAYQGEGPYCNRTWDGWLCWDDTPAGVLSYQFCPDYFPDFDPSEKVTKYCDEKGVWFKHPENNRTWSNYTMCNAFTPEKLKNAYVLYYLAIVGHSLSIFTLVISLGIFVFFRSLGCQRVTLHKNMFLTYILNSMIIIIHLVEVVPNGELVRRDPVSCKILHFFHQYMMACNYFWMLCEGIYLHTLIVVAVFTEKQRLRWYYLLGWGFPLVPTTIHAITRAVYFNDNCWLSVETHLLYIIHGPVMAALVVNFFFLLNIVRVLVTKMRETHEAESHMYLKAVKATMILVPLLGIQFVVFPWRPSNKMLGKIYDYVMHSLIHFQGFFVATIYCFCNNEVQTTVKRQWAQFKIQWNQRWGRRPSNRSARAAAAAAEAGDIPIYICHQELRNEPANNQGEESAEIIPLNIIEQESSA
T1 sequence (looked up) 2: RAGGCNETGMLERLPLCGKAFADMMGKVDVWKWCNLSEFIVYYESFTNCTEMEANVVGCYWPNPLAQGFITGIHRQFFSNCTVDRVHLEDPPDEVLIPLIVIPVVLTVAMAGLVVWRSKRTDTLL

[2] = target: T2, human calcitonin receptor (human, UniProt P30988 25-474); assay: cell-based or functional assay
T2 sequence (looked up): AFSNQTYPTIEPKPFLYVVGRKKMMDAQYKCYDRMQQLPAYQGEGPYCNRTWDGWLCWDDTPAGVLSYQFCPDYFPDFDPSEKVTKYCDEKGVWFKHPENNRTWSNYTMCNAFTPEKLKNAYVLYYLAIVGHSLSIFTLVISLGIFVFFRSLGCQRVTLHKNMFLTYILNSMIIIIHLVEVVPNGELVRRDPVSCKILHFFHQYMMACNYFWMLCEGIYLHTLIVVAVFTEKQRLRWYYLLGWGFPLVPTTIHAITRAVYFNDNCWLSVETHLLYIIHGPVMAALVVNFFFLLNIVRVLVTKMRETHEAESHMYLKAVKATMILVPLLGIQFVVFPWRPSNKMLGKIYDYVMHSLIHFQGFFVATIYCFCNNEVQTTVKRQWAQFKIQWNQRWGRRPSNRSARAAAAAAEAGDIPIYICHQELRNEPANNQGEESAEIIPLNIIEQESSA

Binder	EC50 (cAMP production) [1] [nM]	Ratio (EC50 hCTR / EC50 hAMYR3) [1]	EC50 (cAMP production) [2] [nM]
K([γGlu-C18 diacid])CNTATCATQRLANFLVHSSNNFGPI[dL]PPTNVGSNTY-NH2 (disulfide 2-7) [Peptide 103 (SEQ ID NO: 103)]	0.161	12	1.88
K([γGlu-C18 diacid])KCNTATCATQRLANFL[Aib]HSSNNFGPILPPTNVGS[Aib]TY-NH2 (disulfide 3-8; N-terminus assumed; SMILES CC[C@H](C)[C@H](NC(=O)[C@@H]1CCCN1C(=O)CNC(=O)[C@H](Cc1ccccc1)NC(=O)[C@H](CC(N)=O)NC(=O)[C@H](CC(N)=O)NC(=O)[C@H](CO)NC(=O)[C@H](CO)NC(=O)[C@H](Cc1c[nH]cn1)NC(=O)C(C)(C)NC(=O)[C@H](CC(C)C)NC(=O)[C@H](Cc1ccccc1)NC(=O)[C@H](CC(N)=O)NC(=O)[C@H](C)NC(=O)[C@H](CC(C)C)NC(=O)[C@H](CCCNC(=N)N)NC(=O)[C@H](CCC(N)=O)NC(=O)[C@@H](NC(=O)[C@H](C)NC(=O)[C@@H]1CSSC[C@H](NC(=O)[C@H](CCCCN)NC(=O)[C@@H](N)CCCCNC(=O)CC[C@H](NC(=O)CCCCCCCCCCCCCCCCC(=O)O)C(=O)O)C(=O)N[C@@H](CC(N)=O)C(=O)N[C@@H]([C@@H](C)O)C(=O)N[C@@H](C)C(=O)N[C@@H]([C@@H](C)O)C(=O)N1)[C@@H](C)O)C(=O)N[C@@H](CC(C)C)C(=O)N1CCC[C@H]1C(=O)N1CCC[C@H]1C(=O)N[C@H](C(=O)N[C@@H](CC(N)=O)C(=O)N[C@H](C(=O)NCC(=O)N[C@@H](CO)C(=O)NC(C)(C)C(=O)N[C@H](C(=O)N[C@@H](Cc1ccc(O)cc1)C(N)=O)[C@@H](C)O)C(C)C)[C@@H](C)O) [Peptide 102 (SEQ ID NO: 102)]	0.479	3	1.63
K([γGlu-C18 diacid])KCNTATCATQRLANFLVHSSNNFGP[Aib]LPPTNVGSNTY-NH2 (disulfide 3-8; N-terminus assumed; SMILES CC(C)C[C@H](NC(=O)[C@H](CCCNC(=N)N)NC(=O)[C@H](CCC(N)=O)NC(=O)[C@@H](NC(=O)[C@H](C)NC(=O)[C@@H]1CSSC[C@H](NC(=O)[C@H](CCCCN)NC(=O)[C@@H](N)CCCCNC(=O)CC[C@H](NC(=O)CCCCCCCCCCCCCCCCC(=O)O)C(=O)O)C(=O)N[C@@H](CC(N)=O)C(=O)N[C@@H]([C@@H](C)O)C(=O)N[C@@H](C)C(=O)N[C@@H]([C@@H](C)O)C(=O)N1)[C@@H](C)O)C(=O)N[C@@H](C)C(=O)N[C@@H](CC(N)=O)C(=O)N[C@@H](Cc1ccccc1)C(=O)N[C@@H](CC(C)C)C(=O)N[C@H](C(=O)N[C@@H](Cc1c[nH]cn1)C(=O)N[C@@H](CO)C(=O)N[C@@H](CO)C(=O)N[C@@H](CC(N)=O)C(=O)N[C@@H](CC(N)=O)C(=O)N[C@@H](Cc1ccccc1)C(=O)NCC(=O)N1CCC[C@H]1C(=O)NC(C)(C)C(=O)N[C@@H](CC(C)C)C(=O)N1CCC[C@H]1C(=O)N1CCC[C@H]1C(=O)N[C@H](C(=O)N[C@@H](CC(N)=O)C(=O)N[C@H](C(=O)NCC(=O)N[C@@H](CO)C(=O)N[C@@H](CC(N)=O)C(=O)N[C@H](C(=O)N[C@@H](Cc1ccc(O)cc1)C(N)=O)[C@@H](C)O)C(C)C)[C@@H](C)O)C(C)C) [Peptide 106 (SEQ ID NO: 106)]	0.473	7	3.42
K([γGlu-C18 diacid])CNTATCATQRLANFLVHSSNNFGPIL[dP]PTNVGSNTY-NH2 (disulfide 2-7) [Peptide 104 (SEQ ID NO: 104)]	0.079	23	1.82

Continued, values first:

EC50 (cAMP production) [1] [nM]	Ratio (EC50 hCTR / EC50 hAMYR3) [1]	EC50 (cAMP production) [2] [nM]	Binder
0.801	8	6.81	K([γGlu-C18 diacid])KCNTATCATQRLANFLVHSSNNFGPI[Aib]PPTNVGSNTY-NH2 (disulfide 3-8; N-terminus assumed; SMILES CC[C@H](C)[C@H](NC(=O)[C@@H]1CCCN1C(=O)CNC(=O)[C@H](Cc1ccccc1)NC(=O)[C@H](CC(N)=O)NC(=O)[C@H](CC(N)=O)NC(=O)[C@H](CO)NC(=O)[C@H](CO)NC(=O)[C@H](Cc1c[nH]cn1)NC(=O)[C@@H](NC(=O)[C@H](CC(C)C)NC(=O)[C@H](Cc1ccccc1)NC(=O)[C@H](CC(N)=O)NC(=O)[C@H](C)NC(=O)[C@H](CC(C)C)NC(=O)[C@H](CCCNC(=N)N)NC(=O)[C@H](CCC(N)=O)NC(=O)[C@@H](NC(=O)[C@H](C)NC(=O)[C@@H]1CSSC[C@H](NC(=O)[C@H](CCCCN)NC(=O)[C@@H](N)CCCCNC(=O)CC[C@H](NC(=O)CCCCCCCCCCCCCCCCC(=O)O)C(=O)O)C(=O)N[C@@H](CC(N)=O)C(=O)N[C@@H]([C@@H](C)O)C(=O)N[C@@H](C)C(=O)N[C@@H]([C@@H](C)O)C(=O)N1)[C@@H](C)O)C(C)C)C(=O)NC(C)(C)C(=O)N1CCC[C@H]1C(=O)N1CCC[C@H]1C(=O)N[C@H](C(=O)N[C@@H](CC(N)=O)C(=O)N[C@H](C(=O)NCC(=O)N[C@@H](CO)C(=O)N[C@@H](CC(N)=O)C(=O)N[C@H](C(=O)N[C@@H](Cc1ccc(O)cc1)C(N)=O)[C@@H](C)O)C(C)C)[C@@H](C)O) [Peptide 108 (SEQ ID NO: 108)]
1.07	25	26.3	K([γGlu-C18 diacid])KCNTATCATQRLANFLRHSSNNFGP[Aib]LPPTNVGSNTY-NH2 (disulfide 3-8; N-terminus assumed; SMILES CC(C)C[C@H](NC(=O)[C@H](CCCNC(=N)N)NC(=O)[C@H](CCC(N)=O)NC(=O)[C@@H](NC(=O)[C@H](C)NC(=O)[C@@H]1CSSC[C@H](NC(=O)[C@H](CCCCN)NC(=O)[C@@H](N)CCCCNC(=O)CC[C@H](NC(=O)CCCCCCCCCCCCCCCCC(=O)O)C(=O)O)C(=O)N[C@@H](CC(N)=O)C(=O)N[C@@H]([C@@H](C)O)C(=O)N[C@@H](C)C(=O)N[C@@H]([C@@H](C)O)C(=O)N1)[C@@H](C)O)C(=O)N[C@@H](C)C(=O)N[C@@H](CC(N)=O)C(=O)N[C@@H](Cc1ccccc1)C(=O)N[C@@H](CC(C)C)C(=O)N[C@@H](CCCNC(=N)N)C(=O)N[C@@H](Cc1c[nH]cn1)C(=O)N[C@@H](CO)C(=O)N[C@@H](CO)C(=O)N[C@@H](CC(N)=O)C(=O)N[C@@H](CC(N)=O)C(=O)N[C@@H](Cc1ccccc1)C(=O)NCC(=O)N1CCC[C@H]1C(=O)NC(C)(C)C(=O)N[C@@H](CC(C)C)C(=O)N1CCC[C@H]1C(=O)N1CCC[C@H]1C(=O)N[C@H](C(=O)N[C@@H](CC(N)=O)C(=O)N[C@H](C(=O)NCC(=O)N[C@@H](CO)C(=O)N[C@@H](CC(N)=O)C(=O)N[C@H](C(=O)N[C@@H](Cc1ccc(O)cc1)C(N)=O)[C@@H](C)O)C(C)C)[C@@H](C)O) [Peptide 107 (SEQ ID NO: 107)]
0.082	2	0.176	K([γGlu-C18 diacid])KCNTATCATQRLANFLVHSSN[Aib]FGPILPPTNVGSNTY-NH2 (disulfide 3-8; N-terminus assumed; SMILES CC[C@H](C)[C@H](NC(=O)[C@@H]1CCCN1C(=O)CNC(=O)[C@H](Cc1ccccc1)NC(=O)C(C)(C)NC(=O)[C@H](CC(N)=O)NC(=O)[C@H](CO)NC(=O)[C@H](CO)NC(=O)[C@H](Cc1c[nH]cn1)NC(=O)[C@@H](NC(=O)[C@H](CC(C)C)NC(=O)[C@H](Cc1ccccc1)NC(=O)[C@H](CC(N)=O)NC(=O)[C@H](C)NC(=O)[C@H](CC(C)C)NC(=O)[C@H](CCCNC(=N)N)NC(=O)[C@H](CCC(N)=O)NC(=O)[C@@H](NC(=O)[C@H](C)NC(=O)[C@@H]1CSSC[C@H](NC(=O)[C@H](CCCCN)NC(=O)[C@@H](N)CCCCNC(=O)CC[C@H](NC(=O)CCCCCCCCCCCCCCCCC(=O)O)C(=O)O)C(=O)N[C@@H](CC(N)=O)C(=O)N[C@@H]([C@@H](C)O)C(=O)N[C@@H](C)C(=O)N[C@@H]([C@@H](C)O)C(=O)N1)[C@@H](C)O)C(C)C)C(=O)N[C@@H](CC(C)C)C(=O)N1CCC[C@H]1C(=O)N1CCC[C@H]1C(=O)N[C@H](C(=O)N[C@@H](CC(N)=O)C(=O)N[C@H](C(=O)NCC(=O)N[C@@H](CO)C(=O)N[C@@H](CC(N)=O)C(=O)N[C@H](C(=O)N[C@@H](Cc1ccc(O)cc1)C(N)=O)[C@@H](C)O)C(C)C)[C@@H](C)O) [Peptide 109 (SEQ ID NO: 109)]
